As a reminder, the Kd is the concentration at which binding is half-saturated. High values mean weaker binding, low ones tighter binding.

The target in the test is T1, VEGF (biotinylated target on streptavidin BLI probe) (UniProt P15692-4 27-191, limits assumed, biotin (site not stated)).
T1 construct: also called vascular endothelial growth factor
Put plainly: binding kinetics, Kd (nM); Example 6 describes BLI on biotinylated target.

T1 sequence (P15692 other isoform, or with tags, fused parts or gaps limits assumed): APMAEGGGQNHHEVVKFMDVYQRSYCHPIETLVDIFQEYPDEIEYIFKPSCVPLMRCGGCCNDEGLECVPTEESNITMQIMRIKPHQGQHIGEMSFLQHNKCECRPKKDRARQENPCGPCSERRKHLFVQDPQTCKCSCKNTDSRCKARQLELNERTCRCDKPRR

B1: G5-1 (VHH)
VHH: EVQLQASGGGFVQPGGSLRLSCAASGSTYANYVMGWFRQAPGKEREFVSAISAFNDEVLYYADSVKGRFTISRDNSKNTVYLQMNSLRAEDTATYYCARAGQEEASKNAPGQEPVRYWGQGTQVTVSS
notes: unconjugated comparator of conjugates 24 and 25; also called G5-1 aVEGF VHH, unconjugated; G5-1 alone
As to B1, binding was put at a Kd of 29.3 nM.

Source of the values: patent US20220251185A1 (VALITOR, published 2022).
